Reference: patent US6130078

System: NspHI restriction endonuclease (NspHIR) (Nostoc sp. (ATCC 29106))
Assay: cleavage_in_vitro
Conditions: cell extract dilutions 10^-1 to 10^-5 on lambda DNA

Substance bacteriophage lambda DNA has an activity (units per g wet cells) of 186000.
